According to patent publication US20220002398A1 (ONCOONE RESEARCH AND DEVELOPMENT, published 2022):

B1: C0008 (full anti-oxMIF IgG, IgG1) (antibody, V domains shown)
VH: EVQLLESGGGLVQPGGSLRLSCAASGFTFSIYSMNWVRQAPGKGLEWVSSIGSSGGTTYYADSVKGRFTISRDNSKNTLYLQMNSLRAEDTAVYYCAGSQWLYGMDVWGQGTTVTVSS
VL: DIQMTQSPSSLSASVGDRVTITCRSSQRIMTYLNWYQQKPGKAPKLLIFVASHSQSGVPSRFRGSGSETDFTLTISGLQPEDSATYYCQQSFWTPLTFGGGTKVEIKR
notes: Monospecific control antibody; also called anti-oxMIF monospecific control antibody
B2: C0006 (Anti-oxMIF/CD3 Crossmab (CH1-CL), Crossmab) (bispecific antibody, human IgG1, kappa)
light 1: DIQMTQSPSSLSASVGDRVTITCRSSQRIMTYLNWYQQKPGKAPKLLIFVASHSQSGVPSRFRGSGSETDFTLTISGLQPEDSATYYCQQSFWTPLTFGGGTKVEIKRTVAAPSVFIFPPSDEQLKSGTASVVCLLNNFYPREAKVQWKVDNALQSGNSQESVTEQDSKDSTYSLSSTLTLSKADYEKHKVYACEVTHQGLSSPVTKSFNRGEC
heavy 1: not shown
heavy 2: not shown
light 2: DIQMTQSPSSLSASVGDRVTITCSASSSVSYMNWYQQKPGKAPKRLIYDTSKLASGVPSRFSGSGSGTDFTLTISSLQPEDFATYYCQQWSSNPFTFGQGTKLEIKSSASTKGPSVFPLAPSSKSTSGGTAALGCLVKDYFPEPVTVSWNSGALTSGVHTFPAVLQSSGLYSLSSVVTVPSSSLGTQTYICNVNHKPSNTKVDKKVEPKSC
B3: C0007 (Full anti-oxMIF IgG with anti-CD3 scFv fused to heavy chain, v IgG1-scFv fusion) (bispecific antibody)
heavy: not shown
light: B2 light 1
B4: C0032 (Anti-oxMIF-scFv fused to an anti-CD3-scFv, BiTE) (bispecific antibody)
chain: DIQMTQSPSSLSASVGDRVTITCRSSQRIMTYLNWYQQKPGKAPKLLIFVASHSQSGVPSRFRGSGSETDFTLTISGLQPEDSATYYCQQSFWTPLTFGGGTKVEIKGGGGSGGGGSGGGGSEVQLLESGGGLVQPGGSLRLSCAASGFTFSIYSMNWVRQAPGKGLEWVSSIGSSGGTTYYADSVKGRFTISRDNSKNTLYLQMNSLRAEDTAVYYCAGSQWLYGMDVWGQGTTVTVSSGGGGSQVQLVQSGAEVKKPGASVKVSCKASGYTFTRYTMHWVRQAPGQGLEWMGYINPSRGYTNYNQKFKDRVTLTTDKSSSTAYMELSSLRSEDTAVYYCARYYDDHYSLDYWGQGTLVTVSSGGSGGSGGSGGSGGSDIQMTQSPSSLSASVGDRVTITCSASSSVSYMNWYQQKPGKAPKRLIYDTSKLASGVPSRFSGSGSGTDFTLTISSLQPEDFATYYCQQWSSNPFTFGQGTKLEIKAAAEQKLISEEDLSAWSHPQFEK
notes: also called anti-oxMIF/CD3 BiTE
B5: C0039 (Full anti-oxMIF IgG with anti-CD3 scFv fused to light chain, IgG(lc)-scFv) (bispecific antibody)
heavy: not shown
light: DIQMTQSPSSLSASVGDRVTITCRSSQRIMTYLNWYQQKPGKAPKLLIFVASHSQSGVPSRFRGSGSETDFTLTISGLQPEDSATYYCQQSFWTPLTFGGGTKVEIKRTVAAPSVFIFPPSDEQLKSGTASVVCLLNNFYPREAKVQWKVDNALQSGNSQESVTEQDSKDSTYSLSSTLTLSKADYEKHKVYACEVTHQGLSSPVTKSFNRGECGGGGSGGGGSGGGGSQVQLVQSGAEVKKPGASVKVSCKASGYTFTRYTMHWVRQAPGQGLEWMGYINPSRGYTNYNQKFKDRVTLTTDKSSSTAYMELSSLRSEDTAVYYCARYYDDHYSLDYWGQGTLVTVSSGGSGGSGGSGGSGGSDIQMTQSPSSLSASVGDRVTITCSASSSVSYMNWYQQKPGKAPKRLIYDTSKLASGVPSRFSGSGSGTDFTLTISSLQPEDFATYYCQQWSSNPFTFGQGTKLEIK
notes: also called IgG(Ic)-scFv
B6: C0037 (Anti-oxMIF Fab fused to two anti-CD3 scFv, format: Fab-(scFv)2) (bispecific antibody)
heavy: EVQLLESGGGLVQPGGSLRLSCAASGFTFSIYSMNWVRQAPGKGLEWVSSIGSSGGTTYYADSVKGRFTISRDNSKNTLYLQMNSLRAEDTAVYYCAGSQWLYGMDVWGQGTTVTVSSASTKGPSVFPLAPSSKSTSGGTAALGCLVKDYFPEPVTVSWNSGALTSGVHTFPAVLQSSGLYSLSSVVTVPSSSLGTQTYICNVNHKPSNTKVDKRVEPKSCGGGGSGGGGSGGGGSQVQLVQSGAEVKKPGASVKVSCKASGYTFTRYTMHWVRQAPGQGLEWMGYINPSRGYTNYNQKFKDRVTLTTDKSSSTAYMELSSLRSEDTAVYYCARYYDDHYSLDYWGQGTLVTVSSGGSGGSGGSGGSGGSDIQMTQSPSSLSASVGDRVTITCSASSSVSYMNWYQQKPGKAPKRLIYDTSKLASGVPSRFSGSGSGTDFTLTISSLQPEDFATYYCQQWSSNPFTFGQGTKLEIKAAAEQKLISEEDLAAHHHHHH
light: DIQMTQSPSSLSASVGDRVTITCRSSQRIMTYLNWYQQKPGKAPKLLIFVASHSQSGVPSRFRGSGSETDFTLTISGLQPEDSATYYCQQSFWTPLTFGGGTKVEIKRTVAAPSVFIFPPSDEQLKSGTASVVCLLNNFYPREAKVQWKVDNALQSGNSQESVTEQDSKDSTYSLSSTLTLSKADYEKHKVYACEVTHQGLSSPVTKSFNRGECGGGSGGGSGGGSQVQLVQSGAEVKKPGASVKVSCKASGYTFTRYTMHWVRQAPGQGLEWMGYINPSRGYTNYNQKFKDRVTLTTDKSSSTAYMELSSLRSEDTAVYYCARYYDDHYSLDYWGQGTLVTVSSGGSGGSGGSGGSGGSDIQMTQSPSSLSASVGDRVTITCSASSSVSYMNWYQQKPGKAPKRLIYDTSKLASGVPSRFSGSGSGTDFTLTISSLQPEDFATYYCQQWSSNPFTFGQGTKLEIKASAWSHPQFEK
B7: C0038 (Anti-oxMIF Fab and anti-CD3 scFv fused to Fc, Fab-scFv-Fc) (bispecific antibody, human IgG1, kappa)
light: B2 light 1
heavy: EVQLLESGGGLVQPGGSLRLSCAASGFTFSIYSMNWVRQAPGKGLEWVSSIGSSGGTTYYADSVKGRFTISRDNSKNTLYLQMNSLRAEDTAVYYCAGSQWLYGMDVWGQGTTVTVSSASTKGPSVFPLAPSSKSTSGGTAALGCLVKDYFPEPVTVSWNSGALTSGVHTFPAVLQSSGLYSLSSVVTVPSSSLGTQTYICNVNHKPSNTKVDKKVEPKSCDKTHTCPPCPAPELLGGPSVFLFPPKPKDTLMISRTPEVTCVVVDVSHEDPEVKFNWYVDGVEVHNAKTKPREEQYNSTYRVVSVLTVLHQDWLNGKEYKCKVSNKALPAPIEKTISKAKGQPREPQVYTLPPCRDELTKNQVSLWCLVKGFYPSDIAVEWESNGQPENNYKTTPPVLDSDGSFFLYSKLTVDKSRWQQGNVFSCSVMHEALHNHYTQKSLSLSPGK
chain: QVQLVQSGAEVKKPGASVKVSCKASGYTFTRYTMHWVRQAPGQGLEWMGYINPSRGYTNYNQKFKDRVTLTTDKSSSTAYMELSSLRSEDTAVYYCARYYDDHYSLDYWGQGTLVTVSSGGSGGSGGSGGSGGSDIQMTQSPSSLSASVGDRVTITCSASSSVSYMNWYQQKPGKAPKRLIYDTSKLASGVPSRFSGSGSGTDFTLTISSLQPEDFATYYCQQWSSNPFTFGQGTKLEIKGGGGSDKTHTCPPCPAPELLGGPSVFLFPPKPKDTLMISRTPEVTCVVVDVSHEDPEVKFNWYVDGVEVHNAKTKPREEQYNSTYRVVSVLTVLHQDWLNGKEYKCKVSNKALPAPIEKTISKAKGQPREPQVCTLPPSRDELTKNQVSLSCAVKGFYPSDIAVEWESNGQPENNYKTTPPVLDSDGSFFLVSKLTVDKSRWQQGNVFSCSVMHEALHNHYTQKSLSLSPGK
B8: C0036 (Anti-oxMIF Fab fused to anti-CD3 scFv (HC); format: Fab-scFv) (bispecific antibody)
heavy: B6 heavy
light: B2 light 1
B9: C0033 (Variable domains of anti-oxMIF and anti-CD3 fused in a row (VL1-VH2-VL2-VH1, TandAb)) (bispecific antibody)
chain: DIQMTQSPSSLSASVGDRVTITCSASSSVSYMNWYQQKPGKAPKRLIYDTSKLASGVPSRFSGSGSGTDFTLTISSLQPEDFATYYCQQWSSNPFTFGQGTKLEIKGGSGGSEVQLLESGGGLVQPGGSLRLSCAASGFTFSIYSMNWVRQAPGKGLEWVSSIGSSGGTTYYADSVKGRFTISRDNSKNTLYLQMNSLRAEDTAVYYCAGSQWLYGMDVWGQGTTVTVSSGGSGGSDIQMTQSPSSLSASVGDRVTITCRSSQRIMTYLNWYQQKPGKAPKLLIFVASHSQSGVPSRFRGSGSETDFTLTISGLQPEDSATYYCQQSFWTPLTFGGGTKVEIKGGSGGSQVQLVQSGAEVKKPGASVKVSCKASGYTFTRYTMHWVRQAPGQGLEWMGYINPSRGYTNYNQKFKDRVTLTTDKSSSTAYMELSSLRSEDTAVYYCARYYDDHYSLDYWGQGTLVTVSSAAAEQKLISEEDLSAWSHPQFEK

molecular target: T1, native CD3 on CD3-positive Jurkat T cells (UniProt P07766 23-207; P04234 22-171; P09693 23-182); assay: flow cytometry on viable CD3+ Jurkat T cells, antibody at 70 nM, goat anti-human IgG (H+L) Alexa Fluor 488
T1 construct: whole, on cells; also called functional CD3 (CD3+)
T1 sequence (P07766 23-207, chain 1 of 3): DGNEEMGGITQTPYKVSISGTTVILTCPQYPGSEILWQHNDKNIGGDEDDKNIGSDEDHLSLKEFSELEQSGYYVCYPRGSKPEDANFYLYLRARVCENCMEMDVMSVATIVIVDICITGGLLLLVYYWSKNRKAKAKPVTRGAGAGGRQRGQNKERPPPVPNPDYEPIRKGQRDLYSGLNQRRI
T1 sequence (P04234 22-171, chain 2 of 3): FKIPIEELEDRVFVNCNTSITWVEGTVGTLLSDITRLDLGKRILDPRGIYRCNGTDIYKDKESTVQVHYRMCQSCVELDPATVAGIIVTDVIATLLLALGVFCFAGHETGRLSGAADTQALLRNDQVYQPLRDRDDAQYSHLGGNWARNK
T1 sequence (P09693 23-182, chain 3 of 3): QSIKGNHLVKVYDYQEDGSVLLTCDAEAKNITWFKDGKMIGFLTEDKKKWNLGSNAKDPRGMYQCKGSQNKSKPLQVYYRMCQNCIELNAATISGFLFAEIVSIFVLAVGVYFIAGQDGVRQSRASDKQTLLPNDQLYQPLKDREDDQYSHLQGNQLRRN
Experimental: CD3 positive Jurkat T-cells, which express functional CD3 (CD3+) were incubated with bispecific antibodies, C0008 (anti-oxMIF monospecific control antibody), a non-specific isotype control antibody (Isotype) at a concentration of 70 nM or without antibody (secondary ab only). Bound antibodies were detected by a goat anti-human IgG (H+L) Alexa-Fluor 488 conjugate (secondary antibody). 7AAD was used to label dead cells and samples were analysed by FACS.

Binder	binding result
B1	no binding (tested: 70 nM)
B2	binds
B3	binds
B4	binds
B5	binds

molecular target: T2, Recombinant human MIF, immobilized (transforming MIF to oxMIF) (human, UniProt P14174 2-115); assay: SPR, Biacore T200, HuMIF immobilized on CM5 chip, single cycle kinetics, 1:1 Langmuir model
T2 construct: also called immobilized MIF (oxMIF); HuMIF
T2 sequence (P14174 2-115 limits assumed): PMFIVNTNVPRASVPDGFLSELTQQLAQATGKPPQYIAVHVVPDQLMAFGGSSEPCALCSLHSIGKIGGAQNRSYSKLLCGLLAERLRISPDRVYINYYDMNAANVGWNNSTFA
Experimental: The affinity of the antibodies was determined using a Biacore™ T200 device. HuMIF was immobilized onto CM5 sensor chips and anti-oxMIF bispecific entities were injected at different concentrations in running buffer (HBS-EP plus 0.1% BSA) to generate single cycle kinetic profiles.

Kd [nM]	Binder
5.9	B6
7.2	B2
9.4	B7
2.3	B8
0.61	B3
4.3	B4
4.8	B9
1	B5

molecular target: T2, Recombinant human MIF, immobilized …; assay: ELISA, immobilized recombinant human MIF (oxMIF), protein L-HRP detection, 4-parameter fit
Experimental: Recombinant human MIF (1 μg/ml) diluted in PBS was immobilized into microwell plates (transforming MIF to oxMIF according to Thiele M. et al., 2015, J Immunol 2015; 195:2343-2352). After blocking, the bispecific antibodies were added to the plates at different concentrations. Bound bispecific antibodies were detected using protein L-HRP conjugate. Plates were developed by adding TMB and chromogenic reaction was stopped with H₂SO₄. OD was measured at 450 nm.
EC50 values of the binding curves, which reflect rough KD estimates, were calculated by 4-parameter fit and are shown in Table 5.

EC50 [nM]	Binder
3.4	B6
4.6	B2
4.6	B7
2.3	B8
0.3	B3
4	B4
1.9	B9
0.3	B5
